The source of these data is PMC3909184.

This assay concerns the target CXCR4 (human) (UniProt P61073).
Chain of UniProt P61073 (P61073 whole entry): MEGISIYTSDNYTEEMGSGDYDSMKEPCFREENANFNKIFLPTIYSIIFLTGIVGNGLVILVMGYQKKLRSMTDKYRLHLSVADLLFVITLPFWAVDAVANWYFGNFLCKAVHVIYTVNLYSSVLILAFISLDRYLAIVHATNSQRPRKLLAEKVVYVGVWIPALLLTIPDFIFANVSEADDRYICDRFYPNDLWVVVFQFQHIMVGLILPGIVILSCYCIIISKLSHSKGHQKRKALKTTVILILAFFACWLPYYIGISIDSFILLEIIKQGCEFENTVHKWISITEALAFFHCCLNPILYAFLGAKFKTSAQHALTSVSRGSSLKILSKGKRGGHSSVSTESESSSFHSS

As to “WT CXCL12 (from UniProt P48061 22-93) (ligand)”, the EC50 of Kir3* K+ current activation (TEVC, -50 mV) in Xenopus oocytes co-expressing CXCR4 and Kir3.1* or Kir3.4*; dose-response came to 0.023 µM.
